Data from IntAct's records for PubMed 29789297.

B1: Protein FAM83F (Homo sapiens), Q8NEG4 (parent)
chain: MAESQLNCLDEAHVNEKVTEAQAAFYYCERRRAALEALLGGGEQAYRERLKEEQLRDFLSSPERQALRAAWSPYEDAVPAANARGKSKAKAKAPAPAPAESGESLAYWPDRSDTEVPPLDLGWTDTGFYRGVSRVTLFTHPPKDEKAPHLKQVVRQMIQQAQKVIAVVMDLFTDGDIFQDIVDAACKRRVPVYIILDEAGVKYFLEMCQDLQLTDFRIRNIRVRSVTGVGFYMPMGRIKGTLSSRFLMVDGDKVATGSYRFTWSSSHVDRNLLLLLTGQNVEPFDTEFRELYAISEEVDLYRQLSLAGRVGLHYSSTVARKLINPKYALVSGCRHPPGEMMRWAARQQREAGGNPEGQEEGASGGESAWRLESFLKDLVTVEQVLPPVEPIPLGELSQKDGRMVSHMHRDLKPKSREAPSRNGMGEAARGEAAPARRFSSRLFSRRAKRPAAPNGMASSVSTETSEVEFLTGKRPNENSSADISGKTSPSSAKPSNCVIS
B2: Protein FAM83C (Homo sapiens), Q9BQN1 (parent)
chain: MFGGPGPGVLGAQGMAGPLRGRVEELKLPWWRESSPLVLRHSEAARLAADALLERGEAAYLRVISEERELPFLSALDVDYMTSHVRGGPELSEAQGQEASGPDRLSLLSEVTSGTYFPMASDIDPPDLDLGWPEVPQATGFSPTQAVVHFQRDKAKNIKDLLRFLFSQAHTVVAVVMDIFTDMELLCDLMEASSRRGVPVYLLLAQEHLRHFLEMCYKMDLNGEHLPNMRVRSTCGDTYCSKAGRRFTGQALEKFVLIDCEQVVAGSYSFTWLCSQAHTSMVLQLRGRIVEDFDREFRCLYAESQPVEGFCGGEDPLSPRALRPPPVALAFRPDVPSPTSSLPSSTSLSSIKQSPLMGRSSYLALPGGGDCSDTGVVSSSLGPARREASGQPSLHRQLSDPNHGSPPGLYRANLGKLGAYPWSQSSPALNHNSTSPLTLAVGSPLLPRSRPLLQFHRGAPALSRFPENGLPGSQEPSPLRGRWVPGTTLETVEEKEKKASPSQSRGQLDLLVPFPRAREVGDPDSGVTPNSGPLRPGEQAPEDRRLSPSQADSQLDLLSRALGTGGAPELGSLRPGDRALEDRRLSLNQSRGQSDLLMQYPKAQGSRVPLETNSSARPARRAPDERRQTLGHSQLDLITKFGPFRGEGPGPNGLPISSPARTAGAGSGDEKRLTLGHSKLDLITKYHQLHGARQGTEPGGPKGGHLNGGNSDLVRDEKRLTLGHSKLDLITKYNKSKFKQLRSRFES
B3: Casein kinase I isoform alpha (Homo sapiens), P48729 (parent)
chain: MASSSGSKAEFIVGGKYKLVRKIGSGSFGDIYLAINITNGEEVAVKLESQKARHPQLLYESKLYKILQGGVGIPHIRWYGQEKDYNVLVMDLLGPSLEDLFNFCSRRFTMKTVLMLADQMISRIEYVHTKNFIHRDIKPDNFLMGIGRHCNKLFLIDFGLAKKYRDNRTRQHIPYREDKNLTGTARYASINAHLGIEQSRRDDMESLGYVLMYFNRTSLPWQGLKAATKKQKYEKISEKKMSTPVEVLCKGFPAEFAMYLNYCRGLRFEEAPDYMYLRQLFRILFRTLNHQYDYTFDWTMLKQKAAQQAASSSGQGQQAQTPTGKQTDKTKSNMKGF
partner: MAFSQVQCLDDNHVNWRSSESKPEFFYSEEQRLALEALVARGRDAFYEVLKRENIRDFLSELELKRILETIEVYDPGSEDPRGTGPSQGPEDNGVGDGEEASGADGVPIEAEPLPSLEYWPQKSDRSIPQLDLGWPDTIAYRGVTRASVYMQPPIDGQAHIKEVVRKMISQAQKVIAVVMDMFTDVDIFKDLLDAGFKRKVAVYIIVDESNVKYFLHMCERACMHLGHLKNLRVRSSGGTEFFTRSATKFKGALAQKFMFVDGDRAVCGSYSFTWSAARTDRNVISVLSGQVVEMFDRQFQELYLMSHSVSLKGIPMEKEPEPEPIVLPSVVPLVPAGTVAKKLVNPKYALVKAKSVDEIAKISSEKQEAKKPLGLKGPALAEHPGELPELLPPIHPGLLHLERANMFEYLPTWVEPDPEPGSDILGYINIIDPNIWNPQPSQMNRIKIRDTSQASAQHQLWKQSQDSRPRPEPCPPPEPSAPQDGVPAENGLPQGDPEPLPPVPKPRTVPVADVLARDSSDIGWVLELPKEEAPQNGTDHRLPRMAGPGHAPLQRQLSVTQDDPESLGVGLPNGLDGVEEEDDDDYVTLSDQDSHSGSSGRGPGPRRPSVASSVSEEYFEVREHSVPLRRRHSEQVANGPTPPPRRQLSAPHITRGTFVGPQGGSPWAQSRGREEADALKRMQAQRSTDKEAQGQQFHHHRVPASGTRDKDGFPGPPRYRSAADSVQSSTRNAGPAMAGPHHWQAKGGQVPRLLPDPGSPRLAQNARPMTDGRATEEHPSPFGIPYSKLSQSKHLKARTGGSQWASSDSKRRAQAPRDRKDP
B4: Protein FAM83G (Homo sapiens), A6ND36 (parent)
chain: B3 partner
B5: Casein kinase I isoform alpha (Homo sapiens), P48729 (parent)
chain: B3 chain
partner: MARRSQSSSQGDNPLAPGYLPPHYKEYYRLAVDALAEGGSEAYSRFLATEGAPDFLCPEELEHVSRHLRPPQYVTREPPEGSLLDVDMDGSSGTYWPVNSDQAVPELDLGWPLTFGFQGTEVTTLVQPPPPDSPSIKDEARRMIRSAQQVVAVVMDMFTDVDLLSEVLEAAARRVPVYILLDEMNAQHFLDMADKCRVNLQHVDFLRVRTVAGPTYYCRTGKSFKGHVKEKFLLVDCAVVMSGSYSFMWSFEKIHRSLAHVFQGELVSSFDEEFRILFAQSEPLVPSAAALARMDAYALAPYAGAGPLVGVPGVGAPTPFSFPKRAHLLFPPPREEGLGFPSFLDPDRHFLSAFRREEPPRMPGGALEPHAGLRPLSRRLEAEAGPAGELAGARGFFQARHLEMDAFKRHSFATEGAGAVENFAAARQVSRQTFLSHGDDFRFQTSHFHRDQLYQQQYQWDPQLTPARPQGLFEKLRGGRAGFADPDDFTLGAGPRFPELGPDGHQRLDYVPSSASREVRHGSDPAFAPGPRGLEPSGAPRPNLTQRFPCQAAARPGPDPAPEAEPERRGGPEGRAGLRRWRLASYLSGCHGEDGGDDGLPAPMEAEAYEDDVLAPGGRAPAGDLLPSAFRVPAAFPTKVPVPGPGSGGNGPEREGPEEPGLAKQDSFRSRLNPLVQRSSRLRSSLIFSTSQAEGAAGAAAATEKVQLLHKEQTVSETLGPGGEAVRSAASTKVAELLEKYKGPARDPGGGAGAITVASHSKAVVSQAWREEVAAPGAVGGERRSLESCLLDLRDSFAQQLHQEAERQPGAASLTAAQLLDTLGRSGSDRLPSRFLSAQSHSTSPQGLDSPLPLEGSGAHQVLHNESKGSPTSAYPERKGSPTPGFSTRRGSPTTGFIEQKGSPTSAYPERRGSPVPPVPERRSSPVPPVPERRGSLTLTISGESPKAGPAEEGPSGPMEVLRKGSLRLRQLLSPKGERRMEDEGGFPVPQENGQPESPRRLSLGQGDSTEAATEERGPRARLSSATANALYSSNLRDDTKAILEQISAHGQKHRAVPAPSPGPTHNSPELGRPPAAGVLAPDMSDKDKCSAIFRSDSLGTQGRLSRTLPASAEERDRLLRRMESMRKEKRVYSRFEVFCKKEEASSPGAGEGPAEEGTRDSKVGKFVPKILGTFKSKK
B6: Casein kinase I isoform alpha (Homo sapiens), P48729 (parent)
chain: B3 chain
B7: Protein FAM83H (Homo sapiens), Q6ZRV2 (parent)
chain: B5 partner

Variants of: B1
Conditions: with kc1a_human CSNK1A1, P48729

Row | effect of a mutation on the interaction | Variant
1 | disrupting interaction strength | D250A
2 | disrupting interaction strength | F284A

Variants of: B2
Conditions: with kc1a_human CSNK1A1, P48729

Row | effect of a mutation on the interaction | Variant
3 | disrupting interaction strength | F293A
4 | disrupting interaction strength | D259A

Variants of: B3
Conditions: with fa83g_human FAM83G

Row | effect of a mutation on the interaction | Variant
5 | with no effect | N141A

Variants of: B4
Conditions: with kc1a_human CSNK1A1, P48729

Row | effect of a mutation on the interaction | Variant
6 | with no effect | F300A
7 | disrupting interaction strength | F296A
8 | disrupting interaction strength | F296A;F300A

Variants of: B4
Conditions: with kc1a_human CSNK1A1, P48729
Remark: another data set of the same source

Row | effect of a mutation on the interaction | Variant
9 | disrupting interaction strength | F300A
10 | disrupting interaction strength | D262A

Variants of: B5
Conditions: with fa83h_human FAM83H

Row | effect of a mutation on the interaction | Variant
11 | with no effect | N141A

Variants of: B6
Conditions: with fa83e_human FAM83E

Row | effect of a mutation on the interaction | Variant
12 | with no effect | N141A

Variants of: B6
Conditions: with fa83f_human FAM83F

Row | effect of a mutation on the interaction | Variant
13 | with no effect | N141A

Variants of: B7
Conditions: with kc1a_human CSNK1A1, P48729

Row | effect of a mutation on the interaction | Variant
14 | disrupting interaction strength | F270A
15 | disrupting interaction strength | D236A

Variants of: B7
Conditions: with kc1e_human CSNK1E

Row | effect of a mutation on the interaction | Variant
16 | disrupting interaction strength | F270A
17 | disrupting interaction strength | D236A
